Data published in paper PMC5645029 (Journal of medicinal chemistry, 2017).
Non-standard residues stand in square brackets, D forms with d.

Key:
MC5R = settings: at 100 μM concentrations, β-galactosidase assay; cited from earlier work
mMC5R = mMC5R (Mus musculus, UniProt P41149); test: cell-based
[1] = target: mouse melanocortin-3 receptor (mouse) (UniProt P33033)
[2] = target: mouse melanocortin-1 receptor (mouse) (UniProt Q01727)
[3] = target: mouse melanocortin-4 receptor (mouse) (UniProt P56450)
Chain of mouse melanocortin-4 receptor (mouse) (P56450 whole entry): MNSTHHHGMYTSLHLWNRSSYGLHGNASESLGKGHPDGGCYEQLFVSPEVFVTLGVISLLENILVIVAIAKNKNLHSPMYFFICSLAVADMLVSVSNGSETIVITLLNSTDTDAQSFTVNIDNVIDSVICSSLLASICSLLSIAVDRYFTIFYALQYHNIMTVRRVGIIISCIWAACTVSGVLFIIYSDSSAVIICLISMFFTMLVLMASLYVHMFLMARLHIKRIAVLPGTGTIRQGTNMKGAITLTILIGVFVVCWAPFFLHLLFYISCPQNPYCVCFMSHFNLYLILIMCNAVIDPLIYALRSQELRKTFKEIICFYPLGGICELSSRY

[4] = target: mouse melanocortin-5 receptor (mouse) (UniProt P41149)
Chain of mouse melanocortin-5 receptor (mouse) (P41149 whole entry): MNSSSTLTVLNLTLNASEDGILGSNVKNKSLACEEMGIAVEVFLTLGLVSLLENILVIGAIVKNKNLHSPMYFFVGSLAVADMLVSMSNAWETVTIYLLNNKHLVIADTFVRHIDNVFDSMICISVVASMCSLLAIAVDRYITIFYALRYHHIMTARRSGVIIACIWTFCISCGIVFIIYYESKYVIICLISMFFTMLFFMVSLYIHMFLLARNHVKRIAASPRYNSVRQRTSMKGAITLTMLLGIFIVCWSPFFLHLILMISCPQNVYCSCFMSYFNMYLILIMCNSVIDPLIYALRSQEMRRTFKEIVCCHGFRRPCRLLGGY

mMC1R = mMC1R (Mus musculus, UniProt Q01727); settings: read-out: Ki app at mMC1R; displacement of radiolabeled NDP-MSH; cited from earlier work
Chain of mMC1R (Q01727 whole entry): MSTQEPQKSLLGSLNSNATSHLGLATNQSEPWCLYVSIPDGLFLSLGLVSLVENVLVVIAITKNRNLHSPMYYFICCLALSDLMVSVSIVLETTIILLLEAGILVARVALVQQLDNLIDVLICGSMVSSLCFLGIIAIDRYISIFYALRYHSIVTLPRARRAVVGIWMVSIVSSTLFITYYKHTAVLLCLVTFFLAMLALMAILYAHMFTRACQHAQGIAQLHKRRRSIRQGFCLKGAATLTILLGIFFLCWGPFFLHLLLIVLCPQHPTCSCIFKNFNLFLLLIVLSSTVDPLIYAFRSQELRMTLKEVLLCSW

mMC4R = mMC4R (Mus musculus, UniProt P56450); settings: read-out: Ki app at mMC4R; displacement of radiolabeled NDP-MSH; cited from earlier work
Chain of mMC4R (P56450 whole entry): as the sequence (P56450 whole entry) above

mMC3R = mMC3R (Mus musculus, UniProt P33033); settings: read-out: Ki app at mMC3R; displacement of radiolabeled NDP-MSH; cited from earlier work
Chain of mMC3R (P33033 whole entry): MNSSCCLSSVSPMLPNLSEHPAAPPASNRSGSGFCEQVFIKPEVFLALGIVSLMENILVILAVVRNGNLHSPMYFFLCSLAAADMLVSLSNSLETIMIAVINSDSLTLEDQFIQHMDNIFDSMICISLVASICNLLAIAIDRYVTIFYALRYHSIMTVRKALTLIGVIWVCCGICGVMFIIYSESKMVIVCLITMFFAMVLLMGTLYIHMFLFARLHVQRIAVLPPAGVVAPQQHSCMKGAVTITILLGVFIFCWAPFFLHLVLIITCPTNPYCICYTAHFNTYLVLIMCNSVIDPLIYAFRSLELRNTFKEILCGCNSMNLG

Chain of mouse melanocortin-3 receptor (mouse) (P33033 whole entry): as above
Chain of mouse melanocortin-1 receptor (mouse) (Q01727 whole entry): as the sequence (Q01727 whole entry) above
Chain of mMC5R (P41149 whole entry): as the sequence (P41149 whole entry) above

Molecule | agonist EC50 (cAMP AlphaScreen, HEK293 cells stably expressing the receptor) [1] | agonist EC50 (cAMP AlphaScreen, HEK293 cells stably expressing the receptor) [3] | agonist EC50 (cAMP AlphaScreen, HEK293 cells stably expressing the receptor) [4] | other results
C[C@@H]1NC(=O)[C@H](CC(N)=O)NC(=O)[C@H](Cc2ccccc2)NC(=O)[C@H](Cc2ccccc2)NC(=O)[C@H](CCCNC(=N)N)NC(=O)[C@@H]2CCCN2C(=O)[C@H]2CCCN2C(=O)[C@H](Cc2ccccc2)NC1=O [Peptide 1, c[Pro-Arg-Phe-Phe-Asn-Ala-Phe-DPro]] | – | – | – | activity at the MC5R (MC5R): no activity
C[C@@H]1NC(=O)[C@H](CN)NC(=O)[C@H](Cc2ccccc2)NC(=O)[C@H](Cc2ccccc2)NC(=O)[C@H](CCCNC(=N)N)NC(=O)[C@@H]2CCCN2C(=O)[C@H]2CCCN2C(=O)[C@H](Cc2ccccc2)NC1=O [Peptide 2, c[Pro-Arg-Phe-Phe-Dap-Ala-Phe-DPro]] | – | – | – | EC50 (mMC5R): 0.06 µM; activity at the MC5R (MC5R): no activity
c[Pro-Arg-Phe-Phe-Nle-Ala-Phe-DPro] (peptide) | > 100 µM | > 100 µM | > 100 µM | agonist EC50 (cAMP AlphaScreen, HEK293 cells stably expressing the receptor) [2]: > 100 µM
cyclo(PRFFFAF[dP]) (SMILES C[C@@H]1NC(=O)[C@H](Cc2ccccc2)NC(=O)[C@H](Cc2ccccc2)NC(=O)[C@H](Cc2ccccc2)NC(=O)[C@H](CCCNC(=N)N)NC(=O)[C@@H]2CCCN2C(=O)[C@H]2CCCN2C(=O)[C@H](Cc2ccccc2)NC1=O) [c[Pro-Arg-Phe-Phe-Phe-Ala-Phe-DPro]] | > 100 µM | > 100 µM | > 100 µM | agonist EC50 (cAMP AlphaScreen, HEK293 cells stably expressing the receptor) [2]: > 100 µM
cyclo(PRFFNEF[dP]) (SMILES N=C(N)NCCC[C@@H]1NC(=O)[C@@H]2CCCN2C(=O)[C@H]2CCCN2C(=O)[C@H](Cc2ccccc2)NC(=O)[C@H](CCC(=O)O)NC(=O)[C@H](CC(N)=O)NC(=O)[C@H](Cc2ccccc2)NC(=O)[C@H](Cc2ccccc2)NC1=O) [c[Pro-Arg-Phe-Phe-Asn-Glu-Phe-DPro]] | > 100 µM | > 100 µM | > 100 µM | –
mASP: recombinant mouse agouti-signaling protein (protein, UniProt Q03288 23-131, looked up) Agouti-signaling protein: HLALEETLGDDRSLRSNSSMNSLDFSSVSIVALNKKSKKISRKEAEKRKRSSKKKASMKKVARPPPPSPCVATRDSCKPPAPACCDPCASCQCRFFGSACTCRVLNPNC | – | – | – | Ki (mMC1R): 0.0026 µM; Ki (mMC4R): 0.054 µM; Ki (mMC3R): 0.19 µM
cyclo(PRFFNHF[dP]) (SMILES N=C(N)NCCC[C@@H]1NC(=O)[C@@H]2CCCN2C(=O)[C@H]2CCCN2C(=O)[C@H](Cc2ccccc2)NC(=O)[C@H](Cc2c[nH]cn2)NC(=O)[C@H](CC(N)=O)NC(=O)[C@H](Cc2ccccc2)NC(=O)[C@H](Cc2ccccc2)NC1=O) [c[Pro-Arg-Phe-Phe-Asn-His-Phe-DPro]] | > 100 µM | > 100 µM | > 100 µM | –
